In a protein production outcome set (Wang et al. 2014):

Assay: label from the status in PepcDB records
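Also: failed if final PepcDB status was selected cloned or expressed and not failed if soluble or beyond.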

For “ELDDATCDDIYSGYLKAYEQNWTAYPDAKGVLDRAVATGAPVGILTNGAAPMQQDKLDRTGLGLPELVMLAASTLDSAKPRPEMYARALTHLGARTATIIGDDWTNDVAAPRELGWNALYLDRSGTDPRADIHSLDELFH”, the protein production was “failed”.
In the case of “MEISNRLKSISEVMDRCEIAADIGTDHAYLPIYLIKNNLCKRFIASDVNAGPLKKAINNINKYKLEDKIECRLGSGLNVLKLEEVDVVVIAGMGGNLIRDIIEERLDIFKKLKYAVLQPVQNPEILREYLIKRGFNIIEEQLCIDESKYYEIIKVCYDSKIEDKDDVYYEIGDKLIDMKHPLLKEYINYKIRKYDKIYKNISEESLNALSRKNELSIKIRKLKELLSCL”, the protein production is reported as “failed”.
In the case of “MSHYNPEQLNFVNNHRNNVKEGYFYKNNLLKENNNKMESSKNCIMVPLINNPSHSENNFSKNNRDENINEEKSKYQFEYQNKIIQVPELKYVDKMVYDPVIIEKVKYVPKEVIKYNIIKKPVIKNIITEKKVDVLQVKEKISFKEEEIVEDVYNYVDKDLNTKWNESQYDNEMYKDLTKKKNYIGQNHLLPNNINKMGHINDRTYKHINNNITNLLEPFGPQIDVEENKIIENVFVPNVEKVIEVNKKIDIPINLPVPYIVPKPKIIDVDVPVFKFNDKYVPVPVSKKIIPKITWTDKIYQVDCLIEKPYLVYHNIIKMVPTDSKITVREYPKGIKKINPEELYEVDNLALWMRVNADLKQEHDQMKNEKYETNKKKGKGETEQLDDNISSDHTCECSESYETYEKLSNEEFNSSNEETTIKSSNENILDTLPLHPGHPLEFIHLQNKWINQDTTNIPDMYDQKYLDAHRNAVFNLTTQMPREAEVEAKQLLYIQKKLQQEETL”, the protein production is reported as “failed”.
For “MDLLERLGLGGRRVLILHHDDLGLTHAQNGAYQALGLPTGSVMVPGAWASGVKGEDLGVHLVLTSEWPAPRMRPLTEGESLRDEAGYFPESLEALWRKARAEEVERELKAQIQAAAKLFSPTHLDAHQGAVLRPDLAEVYLRLAEAYRLVPLVPESLEGLGVPPPFLPELERLLYETPFPQVRFLDPYGLPPEERLGFYLDLAHLPPGLYYLVHHSALPTPEGRALPDWPTREADYFALSHPEVRRVLAEFHPLTWRAVREALF”, the protein production was “not failed”.
In the case of “MSSPATTITFFFFFTLSSFFYITSSLQNNNNNKHTATVNSLNIPSAAAEITLVNPKLPPRSLSLTSSKKFEGSSNLVHLRYHMGPVLSSSPINIYVIWYGQWSRPHKSLIRDFLNSISDAKAPSPSVSEWWRTASLYTDQTGSNVSRSVLIAGEYSDSKYSHGQHLTRLTIQEVIASAARSASFPVDHKNGMYLVLTSHDVTMQDFCRAVCGFHYFTFPSMVGYTMPYAWVGQSGKQCPEVCAYPFALPGYMGHGGPGELRPPNGETGVDGMVSVIGHELAEVVSNPLINAWYAGEDPTAPTEIGDLCEGLYGSGGGGGYIGQVMRDREGKTFNMNGKGGRKFLVQWIWNPNLKACSGPNSVD”, the protein production is reported as “failed”.
For “MAASSPDSYISRRPYVTMGLTVAGVLVLVVATQLVEVLFTVFAGILLAVFLAGVTQELTEDTRLPRPLAVALTLIGLGGVLVGLWALAGPDISEQASALATLLPDAAERLASRIRTTVQRYGWMQRYVDPSQLLPPVSSVLGRVTNVFRDTLNLLVNGFIILFIGIYGGAAPQSYLDGVVQLVPPSSRPRARDVLSALGRALRWWLTGRLILMLIVGVLTAVGLKVVGIPSPIALGLLAALFSFVPYLGPVLSVLPALLVASLIGPTEVLYVILVYGAVQLLESYLISPLVQQQAVHIPPATVITAQFIGGVSAGAGGVLLATPFAIVVIVLVQTLYVEDVLGDEVSLLGEH”, the protein production was “failed”.
With “MASVAAARAVPVGSGLRGLQRTLPLVVILGATGTGKSTLALQLGQRLGGEIVSADSMQVYEGLDIITNKVSAQEQRICRHHMISFVDPLVTNYTVVDFRNRATALIEDIFARDKIPIVVGGTNYYIESLLWKVLVNTKPQEMGTEKVIDRKVELEKEDGLVLHKRLSQVDPEMAAKLHPHDKRKVARSLQVFEETGISHSEFLHRQHTEEGGGPLGGPLKFSNPCILWLHADQAVLDERLDKRVDDMLAAGLLEELRDFHRRYNQKNVSENSQDYQHGIFQSIGFKEFHEYLITEGKCTLETSNQLLKKGIEALKQVTKRYARKQNRWVKNRFLSRPGPIVPPVYGLEVSDVSKWEESVLEPALEIVQSFIQGHKPTATPIKMPYNEAENKRSYHLCDLCDRIIIGDREWAAHIKSKSHLNQLKKRRRLDSDAVNTIESQSVSPDHNKEPKEKGSPGQNDQELKCSV” the protein production was “failed”.
For “MIIRIVQNIQRINKEGNAPLYISFYLGKEKVVIPCKLSVPTTKFDSKTGMLRGTNKEAKDINLIIERLKAKVNDILVKHRLKNLTLNKEAFMREYNNPSDFKSFHDFVASYMKTYSRRLEIGTFRHHKSCMRKFKEYCEGLQFHELTEDFLRDYLIYMKKTLCNADSTAQRNLSTIKIYVSAAIKKGYMENDPFKDFGVKRIKSNIDYLTEEELIKFISLYYDRRLPERLERTLGFFLFMCFTSLHISDARHVCLEQINNGILTYYRIKNRNCKPEAIKIPLSIPAFKIIEELQGKRKEGH”, the protein production was “failed”.
In the case of “MGHETKAQLKDYVEVKIMKIKTTVAALSVLSVLSFGAFAADSIDAAQAQNREAIGTVSVSGVASSPMDIREMLNKKAEEKGATAYQITEARSGDTWHATAELYKLEHHHHHH”, the protein production is reported as “not failed”.
With “MDFWPEFMATSWGREFVAGGFGGVAGIISGYPLDTLRIRQQQSSKSGSAFSILRRMLAIEGPSSLYRGMAAPLASVTFQNAMVFQIYAIFSRSFDSSVPLVEPPSYRGVALGGVATGAVQSLLLTPVELIKIRLQLQQTKSGPITLAKSILRRQGLQGLYRGLTITVLRDAPAHGLYFWTYEYVRERLHPGCRKTGQENLRTMLVAGGLAGVASWVACYPLDVVKTRLQQGHGAYEGIADCFRKSVKQEGYTVLWRGLGTAVARAFVVNGAIFAAYEVALRCLFNQSPSPDIVTGD” the protein production was “failed”.
For “MKRANIVKLIVDKKTHEKLKELAIATAKCWNEVNWLRMQQFKKGERVDFSKTEKDVYEKYKQILKVNTQQVARKNAEDWRSFFSLIEEKKEGKLPRWFKPRPPGYWKDKIGKYKLIIIIRKDRYEVNEEKRIIYLKDFKLSLSFKGKLKWHGEQGRLEIIYNEARRIWYAHIPVEVQNDVKAEGKLKASIDLGIVNLATVYVEDGSWYIFKGGSVLSQYEYYSKRISIVQKTLARHKQRRSRKMKLLYEKRKRFLKHALNSMVRKIMEELKKKGVSKLIIGYPKEISKDHGNKLTVNFWNYGYIIRRFEEVGEELGIEVVEVDEAWTSKSCSLCGEAHHRGRIKRGLYRCPRMGKVINADLNGAINILHIPESLGAGSGGQLPVRDRGNGLKAQPAVYRWSNGVGWVSSPTSYEVMKMKAVNRKPMNRPKGTLAL”, the protein production was “failed”.
With “MSNIIVLSGSPRKGGNTDLLVDAFVKGAEKSNNVEVVSVAYYKVNPCIGCNSCFDRAGHECFQQDDMQIVYDKLKCADVIVVASPVYFYGVSAQLKAIIDRLHTPMRNDFKVKKLALILVGAAVLPELFDSIKIQYQLVLNFFKLEDAGMVLVRGAKDKGDVRNTDGLDEAYRLGLAME” the protein production was “failed”.
In the case of “MTVLIIGMGNIGKKLVELGNFEKIYAYDRISKDIPGVVRLDEFQVPSDVSTVVECASPEAVKEYSLQILKNPVNYIIISTSAFADEVFRERFFSELKNSPARVFFPSGAIGGLDVLSSIKDFVKNVRIETIKPPKSLGLDLKGKTVVFEGSVEEASKLFPRNINVASTIGLIVGFEKVKVTIVADPAMDHNIHIVRISSAIGNYEFKIENIPSPENPKTSMLTVYSILRTLRNLESKIIFG”, the protein production is reported as “not failed”.
With “MYLPTHFKQENQAELFDLIEHHPLGTLIVMHADGLEVNHIPFELDRLHLPAGILRGHIAKANPLASLLSEPQSAYVIFQAEQHYISPNWYPGKQEHHRVVPTWNYRVVHATGQLSVIEDQKYLRGVLARLTRQHEADQPAPWRLSDAPADFIEQQLEKIMAIEFNIESIIGKFKLSQN” the protein production was “failed”.
For “MKYNYTVLLSAFTMSVLYSVIYIHSFIIAALITMAFYFLFPYLIFALPLQIMMNKKPKRFSPLYLLYYLAAAFIANAIIFGMLQPSGQSLFQNTAFYLFAVLTALIYWIWDSVLLQKKEA”, the protein production was “failed”.
With “RQAEEGPPPLPRQISDRSVGHYCSMNLTEHNGPKAQIFLNGKPDQPVWFSTIKQMFGYTKLPEEPKGIRVIYVTDMGNVTDWTNPNADTEWMDAKKAFYVIDSGFIGGMGAEDALPFGNKEQAEKFAKDKGGKVVGFDDMPDTYIFK” the protein production was “not failed”.
For “MAVYLDKEKPVSERVEDLLSKMTLAEKCGQLNQRMYGWEAFSRDGETFHITEKFKEEVTRFEGIGALYGLFRADPWSKMNKDTGVSRKNAGKVANKIQRYVIENTRLGIPVLLAEEVPHGHQALDSESYPVNLARAASFNPELQKQVASAITEEISEKGVHLALASALDILRDPRWGRAEECYGEDPYLAAELTAAITEGFQASGKIAVILKHFAAQGEPIGGHNSGPVSIGVRELREIFLEPMRAGIRSGALGVMAAYNEIDGVPCHANKELLTTILREEMGFSGIVMADGCALDRLLKLNPDPKKAAKMALEAGVDLSLWDEVFPFLEESVEKGILDEKVVDDAVRRVLQVKFQLGLFEQPFVEEEI”, the protein production was “failed”.
In the case of “MLKSCPMNPRLDALHPYPFEKLRALLADAGKPTHDLPPINLSIGEPKHAAPACVGQAIAANLAGLSVYPSTKGEPALRQAISQWLSRRYSIPAPDPESEVLPVLGSREALFAFAQTVIDPSAGALVVCPNPFYQIYEGAALLAGATPYYVNADPARDFGCDWARVPDEVWRRTQLVFVCSPGNPAGNVMSLEEWRTLFELSDRHGFVIAADECYSEIYLDEDNPPLGSLQAARRLGRDRYTNLVAFSSLSKRSNVPGMRSGFVAGDAALLARFLLYRTYHGSAMSPVVSAASIAAWSDETHVQENRRQYRAKFEAVLPILQNVLDVRAPQASFYLWAGTPGSDTAFARELYGRTGVTVLPGSLLAREAHNANPGQGRIRIALVAPLDQCVQAAERIAHFARTSI”, the protein production is reported as “failed”.
For “MSSDAISLRAAGPGDLPGLLELYQVLNPSDPELTTQEAGAVFAAMLAQPGLTIFVATENGKPVATATLLIVPNLTRAARPYAFIENVVTLEARRGRGYGRTVVRHAIETAFGANCYKVMLLTGRHDPAVHAFYESCGFVQNKTGFQIRQD”, the protein production was “not failed”.
With “MRGGSLWQLGQSITRRLAQSDKKVVSRRYFASEADLKKTALYDFHVAHGGKMVPFAGWSMPIQYKDSIMDSTVNCRENGSLFDVAHMCGLSLKGKDCVPFLETLVVADVAGLAPGTGSLTVFTNEKGGAIDDSVITKVTDEHIYLVVNAGCRDKDLAHIEEHMKAFKSKGGDVSWHIHDERSLLALQGPLAAPVLQHLTKEDLSKLYFGNFQILDINGSTCFLTRTGYTGEDGFEISVPDEHAVDLAKAILEKSEGKVRLTGLGARDSLRLEAGLCLYGNDMEQHISPVEAGLTWAIGKRRRAEGGFLGADVILQQLKDGPTIRRVGFFSSGPPARSHSEVHDESGNKIGEITSGGFSPNLKKNIAMGYVKSGQHKTGTKVKILVRGKPYEGSITKMPFVATKYYKPT” the protein production was “failed”.
For “MFRFADPNFLYLLILLPFLVALYLYSNYHRRQNIRKYGDPALLKGLMPTISKYRPDIKFWLTFAALTLVILMLARPQFGSKMETVKRSGVEAVIALDISNSMLAEDVTPSRLDKSKKLISRLVDTFNNDKVGLIVFAGDAFTQLPITSDYVSAKMFLETINPSLITTQGTDIGAAIRLAMKSFTPQEGVGRAIIVITDGENHEGGAVEAAQEAAEKGMQVFVLGVGSPDGSPIPAEDGSNNFRRDKDGNVIVTRLNEQMCQEIAKAGNGMYIRVDNTNSAEKVLNNEIAKLSKADVESQVYTEFDEQFQALAWLVLILLVVEMLILERKNPLFKNVRLFK”, the protein production was “failed”.
For “MDIEIENHPLEPFLPANARLLMLGSFPPQKKRWSMDFYYPNLNNDMWRIVGLLFFNNKDYFLNETRKAFCRERIISFLNDKGIALFDTASAIRRLQDNASDKFLEVVQPTDISRLLGQLPECKAIVTTGQKATDTLRAQFEVEEPKVGDFSEFVFDGRPVRLYRMPSSSRAYPLALDKKAAAYRTMYQDLQMLNIELEHHHHHH”, the protein production was “not failed”.
